The values below come from paper PMC8215223.

Residue numbers refer to the chain shown, from its start. Names may count otherwise.

In this assay the target is T1, tubulin (endogenous), P07437.
T1 chain: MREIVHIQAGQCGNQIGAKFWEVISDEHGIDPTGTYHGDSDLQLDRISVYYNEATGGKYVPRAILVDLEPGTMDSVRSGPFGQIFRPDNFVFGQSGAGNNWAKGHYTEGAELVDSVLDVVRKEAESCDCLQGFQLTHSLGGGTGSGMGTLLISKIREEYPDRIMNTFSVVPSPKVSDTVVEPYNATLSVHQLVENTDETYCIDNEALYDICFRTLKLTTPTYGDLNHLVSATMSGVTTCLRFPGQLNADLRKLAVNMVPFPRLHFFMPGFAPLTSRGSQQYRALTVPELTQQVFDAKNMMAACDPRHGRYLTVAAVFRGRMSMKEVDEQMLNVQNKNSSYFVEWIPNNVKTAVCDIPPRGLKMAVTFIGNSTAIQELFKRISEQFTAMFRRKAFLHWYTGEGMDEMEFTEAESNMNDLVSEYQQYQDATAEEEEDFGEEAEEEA
The assay is described as follows: coIP (co-immunoprecipitation, blot band intensity quantified). The conditions noted are these: chain shown with the change; HeLa cells, 100 ng/mL nocodazole for 16 hr (+); parent: est. 7.8; read off a plot.

B1: GFP-WT-HOOK3, Q86VS8 S238A (protein)
chain: MFSVESLERAELCESLLTWIQTFNVDAPCQTVEDLTNGVVMAQVLQKIDPAYFDENWLNRIKTEVGDNWRLKISNLKKILKGILDYNHEILGQQINDFTLPDVNLIGEHSDAAELGRMLQLILGCAVNCEQKQEYIQAIMMMEESVQHVVMTAIQELMSKESPVSAGNDAYVDLDRQLKKTTEELNEALSAKEEIAQRCHELDMQVAALQEEKSSLLAENQVLMERLNQSDSIEDPNAPAGRRHLQLQTQLEQLQEETFRLEAAKDDYRIRCEELEKEISELRQQNDELTTLADEAQSLKDEIDVLRHSSDKVSKLEGQVESYKKKLEDLGDLRRQVKLLEEKNTMYMQNTVSLEEELRKANAARSQLETYKRQVVELQNRLSEESKKADKLDFEYKRLKEKVDSLQKEKDRLRTERDSLKETIEELRCVQAQEGQLTTQGLMPLGSQESSDSLAAEIVTPEIREKLIRLQHENKMLKLNQEGSDNEKIALLQSLLDDANLRKNELETENRLVNQRLLEVQSQVEELQKSLQDQGSKAEDSVLLKKKLEEHLEKLHEANNELQKKRAIIEDLEPRFNNSSLKIEELQEALRKKEEEMKQMEERYKKYLEKAKSVIRTLDPKQNQGAAPEIQALKNQLQERDRLFHSLEKEYEKTKSQREMEEKYIVSAWYNMGMTLHKKAAEDRLASTGSGQSFLARQRQATSSRRSYPGHVQPATAR
As to B1, the response was 8.8 A.U.

B2: GFP-WT-HOOK3, Q86VS8 S238E; S707E (protein)
chain: B1 chain with A238E, S707E
As to B2, the response came out at 9 A.U.

B3: GFP-WT-HOOK3, Q86VS8 S238A; S707A (protein)
chain: B1 chain with S707A
Consider B3, for which the response is 19 A.U.

B4: GFP-WT-HOOK3, Q86VS8 S707A (protein)
chain: B1 chain with A238S, S707A
B4: the response is 8.5 A.U.

B5: GFP-WT-HOOK3, Q86VS8 S707E (protein)
chain: B1 chain with A238S, S707E
For B5, the response stood at 12 A.U.

B6: GFP-WT-HOOK3, Q86VS8 S238E (protein)
chain: B1 chain with A238E
For B6, the response was determined as 20 A.U.
